In data set [1] the target is relaxin family peptide receptor 1 (RXFP1), stably expressed on human embryonic kidney cells (HEK-RXFP1) (UniProt Q9HBX9). The data set can be described thus: cell-based or functional assay.
For data set [2] the following is noted: cited from earlier work.
The target in data set [3] is T1, relaxin family peptide receptor 1 (RXFP1) (Homo sapiens, UniProt Q9HBX9).
T1 construct: expressed in transfected cells; host or cells: HEK (human embryonic kidney) cells stably expressing RXFP1, with pCRE beta-galactosidase reporter
T1 sequence (Q9HBX9 1-757): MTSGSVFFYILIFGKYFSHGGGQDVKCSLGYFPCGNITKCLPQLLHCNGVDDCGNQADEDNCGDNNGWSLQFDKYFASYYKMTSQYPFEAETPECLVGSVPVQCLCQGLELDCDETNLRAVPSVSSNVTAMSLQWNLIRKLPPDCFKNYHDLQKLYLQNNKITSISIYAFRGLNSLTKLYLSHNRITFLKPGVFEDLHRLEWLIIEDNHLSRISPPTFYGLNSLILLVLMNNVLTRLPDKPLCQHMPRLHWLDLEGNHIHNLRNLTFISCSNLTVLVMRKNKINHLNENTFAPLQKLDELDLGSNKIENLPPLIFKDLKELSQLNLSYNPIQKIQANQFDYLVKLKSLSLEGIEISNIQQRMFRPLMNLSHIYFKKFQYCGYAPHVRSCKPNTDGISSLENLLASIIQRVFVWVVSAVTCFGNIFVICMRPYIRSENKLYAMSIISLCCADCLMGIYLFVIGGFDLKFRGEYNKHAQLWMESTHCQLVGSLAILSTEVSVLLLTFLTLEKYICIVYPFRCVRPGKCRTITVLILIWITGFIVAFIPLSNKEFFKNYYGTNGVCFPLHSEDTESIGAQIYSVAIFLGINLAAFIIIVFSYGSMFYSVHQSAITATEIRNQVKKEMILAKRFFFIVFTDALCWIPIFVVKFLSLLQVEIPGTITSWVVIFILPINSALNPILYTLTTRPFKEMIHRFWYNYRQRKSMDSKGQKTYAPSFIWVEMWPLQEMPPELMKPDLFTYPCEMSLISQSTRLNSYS
The data set is described as follows: HEK-RXFP1 cAMP reporter gene assay. Type of data set: cell-based. The procedure:
HEK-RXFP1 cAMP Reporter Gene Assay
B7-33 activity at RXFP1 was assessed using a cAMP reporter gene assay as previously described (Scott et al. J. Biol. Chem. 2006, 281:34942-3495) with slight modification. PLGA B7-33 well plate coatings, and peptide controls in the absence of PLGA (dried peptide), were compared to solubilized B7-33 solution standards ([…]) and H2 relaxin (10 nM). Wells were seeded (25,000 cells per well, 100 μL) with dispersed HEK-RXFP1-pCRE reporter cells and incubated for 6 hours. Cells were then lysed and the reporter gene stimulated β-galactosidase activity was measured using a colorimetric substrate to evaluate the relative cAMP responses. Ligand-induced cAMP stimulation was expressed as a % of maximal response to H2 relaxin. Each data point was measured in triplicate and each experiment conducted independently at least three separate times.

These results are taken from patent publication US20220211614A1, “COMPOSITIONS AND IMPLANTABLE DEVICES” (Commonwealth Scientific and Industrial Research Organisation, priority 2019, published 2022).

No end group written: not given here.

In data set [1], “B7-33 peptide (single B chain peptide analogue of H2 relaxin)” displayed an EC50, cAMP reporter gene assay (beta-galactosidase, colorimetric) in HEK-RXFP1 cells; B7-33 peptide solution control of 1000 nM and an EC50, cAMP reporter gene assay (beta-galactosidase, colorimetric) in HEK-RXFP1 cells; PLGA-free dried peptide control of 1000 nM.

In the case of `CC(C)Oc1ccccc1C(=O)Nc1ccccc1C(=O)Nc1cccc(S(=O)(=O)C(F)(F)F)c1` [ML290], the in vivo half-life result in data set [2] was “approximately 8 hours”.

recombinant human relaxin 2: the in vivo half-life in data set [2] is 40 min.

On to VIKLSGRELVRAQIAISGMSTWSKRSL-NH2 [B7-33], for which, in data set [3] (HEK-RXFP1 cell assay (FIG. 2), oxidized species of B7-33 observed by MALDI), the “retained activity against the RXFP1 receptor after drying/oxidation” value is recorded as “retains activity against the RXFP1 receptor”. Besides, in data set [3] (cAMP reporter gene (β-galactosidase), HEK-RXFP1 cells, 6 hours incubation), the EC50 amounted to 1000 nM.
